In the supplement of paper PMC11136658:

Test system: peptide library, one residue held at a place counted from the Y acceptor
Assay: relative phosphorylation of the sub-library (ratio to the mean residue at this position); higher = residue favoured
Method in brief: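 Within 384-well plates, purified recombinant kinases phosphorylated biotinylated Tyr-centred peptide library mixtures over 90 min using 50 μM ATP spiked with γ-32P-ATP; each mixture fixed one residue at one position from −5 to +5. Streptavidin membrane capture, rinsing, phosphorimaging and ImageQuant gave the intensities. These were normalized per position to the sum of the 18 randomized residues (16 for the Ser/Thr-free library) and multiplied by that number.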

FGR, construct: Full length, human (from UniProt P09769)
relative phosphorylation
Conditions	at +1	at +2	at +3	at +4	at +5	at -1	at -2	at -3	at -4	at -5
A fixed	2.2	1.05	0.869	0.85	0.72	0.929	0.952	0.88	1.03	0.985
D fixed	0.746	0.588	0.464	0.599	0.901	1.07	1.48	1.52	1.29	1.1
E fixed	0.732	0.949	0.432	0.759	0.875	1.89	1.37	1.52	1.36	0.85
F fixed	0.643	1.12	2.33	1.21	1.25	0.601	0.711	0.915	1.07	1.07
G fixed	2.67	0.888	0.927	1.31	0.896	0.558	1.5	1.15	1.15	1.24
H fixed	0.762	0.846	0.969	0.953	0.936	1.45	0.995	0.999	0.933	0.966
I fixed	0.827	0.906	1.3	0.792	0.71	1.86	0.626	0.635	0.829	0.907
K fixed	0.485	0.947	0.664	1.16	1.27	0.32	0.641	0.792	0.856	0.991
L fixed	0.669	0.903	0.954	0.884	0.831	1.02	0.747	0.746	1.07	0.939
M fixed	1.01	1.02	0.806	1.05	0.751	0.754	0.576	0.799	0.83	0.945
N fixed	0.757	1.02	0.666	0.928	1.14	0.683	1.56	1.26	0.798	1.06
P fixed	0.226	0.839	1.02	1.2	0.977	2.09	0.878	1.02	1.17	1.15
Q fixed	0.959	0.987	0.726	1.06	0.95	0.753	1.16	0.922	1.04	0.944
R fixed	0.519	1.22	0.98	1.39	1.4	0.291	0.738	0.883	0.875	1.1
S fixed	1.52	1.14	0.882	0.862	1.11	0.572	1.43	1.19	0.841	0.875
T fixed	1.14	1.2	0.795	0.893	1.06	1.21	1.03	0.908	0.681	0.748
V fixed	0.955	0.904	1.05	0.781	0.712	1.38	0.738	0.594	0.733	0.749
W fixed	1.17	1.48	2.17	1.33	1.52	0.556	0.859	1.26	1.45	1.38
pThr fixed	1.35	1.11	0.787	0.528	0.963	1.12	1.48	1.74	1.05	1.02
pTyr fixed	1.57	1.13	0.585	0.593	0.94	0.966	2.02	1.99	1.38	1.05
